Data published in article PMC11212984.
“And” between values parts separate entries of the source, which are not always exact repeats. Equal entries are not always repeated.

Target: ERGU-1::GFP (C. elegans ERGU-1, Y87G2A.13, with GFP fused to its C-terminus) (C. elegans)
Assay: SDS-PAGE western blot

stoichiometry N: 2 and 4
Substance: ERGU-1::GFP (C. elegans ERGU-1, Y87G2A.13, with GFP fused to its C-terminus) (natural protein)
